The source of these data is patent US20180155451A1 (published 2018).

Holding throughout (assay): SPR (Biacore), antibody captured on chip, FcgR extracellular domain as analyte
One experiment addresses T1, FcgRIa (human, UniProt P12314 16-292).
T1 construct: extracellular domain; Expressed in FreeStyle293 cells and purified; used as analyte in Biacore; also called FcγRIa; FcγRI; not shown: His tag attached to the C terminus
The procedure:
(§1) Specifically, H240-Kn120 (SEQ ID NO: 99) resulting from introduction of S239M into H240-Kn067 and H240-Kn126 (SEQ ID NO: 100) resulting from introduction of Y235Q into H240-Kn120 were prepared according to the method described in Reference Example 1. […] Those described above were assayed for the binding to each FcgR according to the method described in Reference Example 8.
(§2) Analysis of interaction between obj ective antibody and the FcγR was carried out using Biacore T100 (GE Healthcare), Biacore T200, Biacore A100, and Biacore 4000. HBS-EP+ (GE Healthcare) was used as the running buffer, and the measurement temperature was set to 25° C. Chips produced by immobilizing the antigen peptide by the amine coupling method to a Series S sensor Chip CM5 (GE Healthcare), chips produced by allowing preliminarily biotinylated antigen peptides to interact with and immobilize onto a Series S Sensor Chip SA (certified) (GE Healthcare), chips produced by immobilizing Protein L (ACTIGEN, BioVision) to Series S Sencor Chip CM5 (GE Healthcare), or chips produced by immobilizing Protein A/G (Thermo Scientific) to Series S Sencor Chip CM5 (GE Healthcare) were used. Antibodies of interest were captured onto these chips, and allowed to interact to each FcγR diluted with running buffer. To regenerate and repeatedly use the chip, the antibodies captured onto the chip were washed off by reacting 10 mM glycine-HCl, pH 1.5.

The next experiment concerns the target T2, FcgRIIa R (human, UniProt P12318 34-217).
T2 construct: extracellular domain; also called FcγRIIa R; FcγRIIa type R; not shown: His tag attached to the C terminus
T2 sequence (looked up): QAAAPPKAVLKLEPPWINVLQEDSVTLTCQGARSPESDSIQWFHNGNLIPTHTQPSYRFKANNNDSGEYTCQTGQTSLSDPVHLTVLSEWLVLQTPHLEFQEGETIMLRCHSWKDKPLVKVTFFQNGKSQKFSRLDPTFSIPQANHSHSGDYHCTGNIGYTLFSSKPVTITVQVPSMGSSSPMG
The procedure:
as §1, §2

Another experiment addresses T3, FcgRIIa H (human, UniProt P12318 34-217).
T3 construct: extracellular domain; also called FcγRIIa H; FcγRIIa type H; not shown: His tag attached to the C terminus
T3 sequence (looked up): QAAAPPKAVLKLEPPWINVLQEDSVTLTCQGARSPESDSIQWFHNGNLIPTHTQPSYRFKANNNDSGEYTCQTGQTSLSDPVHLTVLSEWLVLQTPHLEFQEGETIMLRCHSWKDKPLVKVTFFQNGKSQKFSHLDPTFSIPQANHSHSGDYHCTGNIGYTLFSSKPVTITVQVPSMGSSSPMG
How it is done:
as §1, §2

A further experiment addresses T4, FcgRIIb (human, UniProt P31994 43-217).
T4 construct: extracellular domain; Expressed in FreeStyle293 cells and purified; used as analyte in Biacore; also called FcγRIIb; CD32B; not shown: His tag attached to the C terminus
T4 sequence (looked up): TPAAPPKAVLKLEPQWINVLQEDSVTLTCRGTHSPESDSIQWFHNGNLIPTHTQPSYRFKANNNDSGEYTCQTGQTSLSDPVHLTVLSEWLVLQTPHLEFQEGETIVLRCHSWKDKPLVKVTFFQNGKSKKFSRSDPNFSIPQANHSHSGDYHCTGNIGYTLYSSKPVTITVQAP
The procedure: as §1, §2

The target of the next experiment is T5, FcgRIIIa F (human, UniProt P08637 17-208).
T5 construct: extracellular domain; also called FcγRIIIa F; not shown: His tag attached to the C terminus
How it is done: as §1, §2

For the next experiment, the target named is T6, FcgRIIIa V (human, UniProt P08637 17-208).
T6 construct: extracellular domain; also called FcγRIIIa V; not shown: His tag attached to the C terminus
How it is done:
as §1, §2

T1 sequence (P12314 16-292): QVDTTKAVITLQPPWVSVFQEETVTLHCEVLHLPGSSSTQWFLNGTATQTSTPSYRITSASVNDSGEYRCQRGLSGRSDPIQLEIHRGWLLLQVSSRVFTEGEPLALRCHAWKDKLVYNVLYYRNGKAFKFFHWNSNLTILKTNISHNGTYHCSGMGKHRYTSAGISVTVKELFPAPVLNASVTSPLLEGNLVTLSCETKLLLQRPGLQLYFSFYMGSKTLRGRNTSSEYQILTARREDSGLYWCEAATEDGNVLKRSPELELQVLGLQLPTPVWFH
T5 sequence (P08637 17-208): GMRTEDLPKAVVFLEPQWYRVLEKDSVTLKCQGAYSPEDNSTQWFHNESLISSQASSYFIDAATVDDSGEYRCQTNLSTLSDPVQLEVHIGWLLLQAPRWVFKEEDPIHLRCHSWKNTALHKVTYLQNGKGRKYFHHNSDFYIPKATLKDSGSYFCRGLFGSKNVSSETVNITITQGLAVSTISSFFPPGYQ
T6 sequence (P08637 17-208 F176V limits assumed): as the sequence (P08637 17-208) above, with F160V counted along it

B1: H240-Kn120/H240-Hl068/L73-k0 (antibody, human IgG1, kappa)
heavy 1: QDQLVQSGAEVKKPGASVKVSCKASGFNIKDTYIQWVRQAPGQGLEWMGRIDPLRKQTKYREKFEGRVTITADTSTNTAYMELSSLRSEDTAVYYCVRSGREFDYWGQGTLVTVSSASTKGPSVFPLAPSSKSTSGGTAALGCLVKDYFPEPVTVSWNSGALTSGVHTFPAVLQSSGLYSLSSVVTVPSSSLGTQTYICNVNHKPSNTKVDKKVEPKSCDKTHTCPPCPAPEYYWGPMVFLFPPKPKDTLMISRTPEVTCVVVDVSDEDPEVKFNWYVDGVEVHNAKTKPREEQYNATYRVVSVLTVLHQDWLNGKEYKCKVSNKDLPAPIEKTISKAKGQPREPQVCTLPPSRDELTKNQVSLWCLVKGFYPSDIAVEWESNGQPENNYKTTPPVLDSDGSFFLYSKLTVDKSRWQQGNVFSCSVMHEALHNHYTQKSLSLSP
heavy 2: QDQLVQSGAEVKKPGASVKVSCKASGFNIKDTYIQWVRQAPGQGLEWMGRIDPLRKQTKYREKFEGRVTITADTSTNTAYMELSSLRSEDTAVYYCVRSGREFDYWGQGTLVTVSSASTKGPSVFPLAPSSKSTSGGTAALGCLVKDYFPEPVTVSWNSGALTSGVHTFPAVLQSSGLYSLSSVVTVPSSSLGTQTYICNVNHKPSNTKVDKKVEPKSCDKTHTCPPCPAPELLGGPSVFLFPPKPKDTLMISRTPEVTCVVVDVSHEEPEVKFNWYVDGVEVHNAKTKPREEQYNSTYRVVSVLTVLHQDWLNGKEYKCKVSNDALPKPIEETISKAKGQPREPQVYTLPPSRCELTKNQVSLSCAVKGFYPSDIAVEWESNGQPENNYKTTPPVLDSDGSFFLVSKLTVDKSRWQQGNVFSCSVMHEALHNHYTQKSLSLSP
light: DIQMTQSPSSLSASVGDRVTITCRASQDIHKYIAWYQQKPGQAPRLLIQYTSTLQPGVPSRFSGSGSGTDYTFTISSLQPEDIATYYCLQYEQLRTFGGGTKVEIKRTVAAPSVFIFPPSDEQLKSGTASVVCLLNNFYPREAKVQWKVDNALQSGNSQESVTEQDSKDSTYSLSSTLTLSKADYEKHKVYACEVTHQGLSSPVTKSFNRGEC
notes: Heterodimerized anti-EREG IgG1: Kn120 is H240-Kn067 with S239M
In the case of B1, the Kd (in general, the free concentration of one partner at which half of the binding sites on the other are occupied at equilibrium, for simple one-to-one binding) was determined as 0.37 nM with FcgRIa; 17 nM with FcgRIIa R; 59 nM with FcgRIIa H; 150 nM with FcgRIIb; 2.4 nM with FcgRIIIa F; 0.66 nM in the experiment with FcgRIIIa V.

B2: H240-Kn037/H240-Hl036/L73-k0 (antibody, human IgG1, kappa)
heavy 1: QDQLVQSGAEVKKPGASVKVSCKASGFNIKDTYIQWVRQAPGQGLEWMGRIDPLRKQTKYREKFEGRVTITADTSTNTAYMELSSLRSEDTAVYYCVRSGREFDYWGQGTLVTVSSASTKGPSVFPLAPSSKSTSGGTAALGCLVKDYFPEPVTVSWNSGALTSGVHTFPAVLQSSGLYSLSSVVTVPSSSLGTQTYICNVNHKPSNTKVDKKVEPKSCDKTHTCPPCPAPELLAGPDVFLFPPKPKDTLMISRTPEVTCVVVDVSHEDPEVKFNWYVDGVEVHNAKTKPREEQYNSTYRVVSVLTVLHQDWLNGKEYKCKVSNKALPAPEEKTISKAKGQPREPQVCTLPPSRDELTKNQVSLWCLVKGFYPSDIAVEWESNGQPENNYKTTPPVLDSDGSFFLYSKLTVDKSRWQQGNVFSCSVMHEALHNHYTQKSLSLSP
heavy 2: QDQLVQSGAEVKKPGASVKVSCKASGFNIKDTYIQWVRQAPGQGLEWMGRIDPLRKQTKYREKFEGRVTITADTSTNTAYMELSSLRSEDTAVYYCVRSGREFDYWGQGTLVTVSSASTKGPSVFPLAPSSKSTSGGTAALGCLVKDYFPEPVTVSWNSGALTSGVHTFPAVLQSSGLYSLSSVVTVPSSSLGTQTYICNVNHKPSNTKVDKKVEPKSCDKTHTCPPCPAPELLAGPDVFLFPPKPKDTLMISRTPEVTCVVVDVSHEDPEVKFNWYVDGVEVHNAKTKPREEQYNSTYRVVSVLTVLHQDWLNGKEYKCKVSNKALPAPEEKTISKAKGQPREPQVYTLPPSRCELTKNQVSLSCAVKGFYPSDIAVEWESNGQPENNYKTTPPVLDSDGSFFLVSKLTVDKSRWQQGNVFSCSVMHEALHNHYTQKSLSLSP
light: DIQMTQSPSSLSASVGDRVTITCRASQDIHKYIAWYQQKPGQAPRLLIQYTSTLQPGVPSRFSGSGSGTDYTFTISSLQPEDIATYYCLQYEQLRTFGGGTKVEIKRTVAAPSVFIFPPSDEQLKSGTASVVCLLNNFYPREAKVQWKVDNALQSGNSQESVTEQDSKDSTYSLSSTLTLSKADYEKHKVYACEVTHQGLSSPVTKSFNRGEC
notes: this is a derivation
On to B2, for which the Kd is 0.098 nM with FcgRIa; 29 nM with FcgRIIa R; 46 nM with FcgRIIa H; 380 nM in the experiment with FcgRIIb; 21 nM in the experiment with FcgRIIIa F; 6.8 nM with FcgRIIIa V.

B3: H240-Kn126/H240-Hl068/L73-k0 (antibody, human IgG1, kappa)
heavy 1: QDQLVQSGAEVKKPGASVKVSCKASGFNIKDTYIQWVRQAPGQGLEWMGRIDPLRKQTKYREKFEGRVTITADTSTNTAYMELSSLRSEDTAVYYCVRSGREFDYWGQGTLVTVSSASTKGPSVFPLAPSSKSTSGGTAALGCLVKDYFPEPVTVSWNSGALTSGVHTFPAVLQSSGLYSLSSVVTVPSSSLGTQTYICNVNHKPSNTKVDKKVEPKSCDKTHTCPPCPAPEYQWGPMVFLFPPKPKDTLMISRTPEVTCVVVDVSDEDPEVKFNWYVDGVEVHNAKTKPREEQYNATYRVVSVLTVLHQDWLNGKEYKCKVSNKDLPAPIEKTISKAKGQPREPQVCTLPPSRDELTKNQVSLWCLVKGFYPSDIAVEWESNGQPENNYKTTPPVLDSDGSFFLYSKLTVDKSRWQQGNVFSCSVMHEALHNHYTQKSLSLSP
heavy 2: QDQLVQSGAEVKKPGASVKVSCKASGFNIKDTYIQWVRQAPGQGLEWMGRIDPLRKQTKYREKFEGRVTITADTSTNTAYMELSSLRSEDTAVYYCVRSGREFDYWGQGTLVTVSSASTKGPSVFPLAPSSKSTSGGTAALGCLVKDYFPEPVTVSWNSGALTSGVHTFPAVLQSSGLYSLSSVVTVPSSSLGTQTYICNVNHKPSNTKVDKKVEPKSCDKTHTCPPCPAPELLGGPSVFLFPPKPKDTLMISRTPEVTCVVVDVSHEEPEVKFNWYVDGVEVHNAKTKPREEQYNSTYRVVSVLTVLHQDWLNGKEYKCKVSNDALPKPIEETISKAKGQPREPQVYTLPPSRCELTKNQVSLSCAVKGFYPSDIAVEWESNGQPENNYKTTPPVLDSDGSFFLVSKLTVDKSRWQQGNVFSCSVMHEALHNHYTQKSLSLSP
light: DIQMTQSPSSLSASVGDRVTITCRASQDIHKYIAWYQQKPGQAPRLLIQYTSTLQPGVPSRFSGSGSGTDYTFTISSLQPEDIATYYCLQYEQLRTFGGGTKVEIKRTVAAPSVFIFPPSDEQLKSGTASVVCLLNNFYPREAKVQWKVDNALQSGNSQESVTEQDSKDSTYSLSSTLTLSKADYEKHKVYACEVTHQGLSSPVTKSFNRGEC
notes: Heterodimerized anti-EREG IgG1: Kn126 is H240-Kn120 with Y235Q
As to B3, the Kd in the experiment with FcgRIa amounted to 0.4 nM; in the experiment with FcgRIIa R, 76 nM; with FcgRIIa H, 170 nM; with FcgRIIb, 520 nM; with FcgRIIIa F, 3.7 nM; with FcgRIIIa V it was 0.64 nM.
